# Laboratory results: patent US20080226630A1
# B1: antibody 831 (clone 831) (antibody, human IgG1, kappa, V domains shown)
# VH: QVQLVQSGAEVKKPGASVKVSCKASANIFTYAMHWVRQAPGQRLEWMGWINVGNGQTKYSQRFQGRVTITRDTSATTAYMELSTLRSEDTAVYYCARRASQYGEVYGNYFDYWGQGTLVTVSS
# VL: DIQMTQSPSTLSASVGDRLTITCRASQNIYNWLAWYQQKPGKAPKLLIYDASTLESGVPSRFSGSGSGTEFTLTISSLQPDDFATYYCQQYNSLSPTFGQGTKVEIKR
# B2: antibody 800 (clone 800) (antibody, human IgG1, kappa, V domains shown)
# VH: QVQLVESGGAVVQPGRSLRLSCEVSGFSFSDYGMNWVRQGPGKGLEWVAVIWHDGSNKNYLDSVKGRFTVSRDNSKNTLFLQMNSLRAEDTAVYYCARTPYEFWSGYYFDFWGQGTLVTVSS
# VL: AIQLTQSPSSLSASVGDRVTLTCRASQGITDSLAWYQQKPGKAPKVLLYAASRLESGVPSRFSGRGSGTDFTLTISSLQPEDFATYYCQQYSKSPATFGPGTKVEIRR
# B3: antibody 880 (clone 880) (antibody, human IgG1, kappa, V domains shown)
# VH: QITLKESGPTLVRPTQTLTLTCTFSGFSLSTSKLGVGWIRQPPGKALEWLALVDWDDDRRYRPSLKSRLTVTKDTSKNQVVLTMTNMDPVDTATYYCAHSAYYTSSGYYLQYFHHWGPGTLVTVSS
# VL: DIQMTQSPSSLAASVGDRVTITCRASQTIASYVNWYQQKPGKAPNLLIYAASSLQSGVPSRFSGSGSGTDFTLTISSLQPEDFASYFCQQSYSFPYTFGQGTKLDIKR
# B4: antibody 818 (clone 818) (antibody, human IgG1, kappa, V domains shown)
# VH: QVTLRESGPAVVKPTETLTLTCAFSGFSLNAGRVGVSWIRQPPGQAPEWLARIDWDDDKAFRTSLKTRLSISKDSSKNQVVLTLSNMDPADTATYYCARTQVFASGGYYLYYLDHWGQGTLVTVSS
# VL: DIQMTQSPSSLSASVGDRVTITCRASQTIASYVNWYQQKPGRAPSLLIYAASNLQSGVPPRFSGSGSGTDFTLTISGLQPDDFATYYCQQSYSYRALTFGGGTKVEIKR
# B5: antibody 827 (clone 827) (antibody, human IgG1, kappa, V domains shown)
# VH: QVQLVQSGAEVKKPGASVKVSCRVSGHTFTALSKHWMRQGPGGGLEWMGFFDPEDGDTGYAQKFQGRVTMTEDTATGTAYMELSSLTSDDTAVYYCATVAAAGNFDNWGQGTLVTVSS
# VL: DIQMTQSPSSLAASVGDRVTITCRASQFISSYLHWYQQRPGKAPKLLMYAASTLQSGVPSRFSGSGSGTDFTLTISSLQPEDFATYYCQQSYTNPYTFGQGTKLEIKR
# B6: antibody 894 (clone 894) (antibody, human IgG1, kappa, V domains shown)
# VH: QVQLVESGGGVVQPGKSLRLSCAASGFRFSDYGMHWVRQAPSKGLEWVAVIWHDGSNIRYADSVRGRFSISRDNSKNTLYLQMNSMRADDTAFYYCARVPFQIWSGLYFDHWGQGTLVTVSS
# VL: EIVMTQSPATLSVSPGERATLSCRASQSVGNNLAWYQQRPGQAPRLLIYGASTRATGIPARFSGSGSGTEFTLTISSLQSEDFAVYYCQQYDKWPETFGQGTKVDIKR
# Substrate: F protein of RSV strain B1 (human respiratory syncytial virus strain B1 (subtype B)) (UniProt O36634)
# Sequence (O36634 26-574): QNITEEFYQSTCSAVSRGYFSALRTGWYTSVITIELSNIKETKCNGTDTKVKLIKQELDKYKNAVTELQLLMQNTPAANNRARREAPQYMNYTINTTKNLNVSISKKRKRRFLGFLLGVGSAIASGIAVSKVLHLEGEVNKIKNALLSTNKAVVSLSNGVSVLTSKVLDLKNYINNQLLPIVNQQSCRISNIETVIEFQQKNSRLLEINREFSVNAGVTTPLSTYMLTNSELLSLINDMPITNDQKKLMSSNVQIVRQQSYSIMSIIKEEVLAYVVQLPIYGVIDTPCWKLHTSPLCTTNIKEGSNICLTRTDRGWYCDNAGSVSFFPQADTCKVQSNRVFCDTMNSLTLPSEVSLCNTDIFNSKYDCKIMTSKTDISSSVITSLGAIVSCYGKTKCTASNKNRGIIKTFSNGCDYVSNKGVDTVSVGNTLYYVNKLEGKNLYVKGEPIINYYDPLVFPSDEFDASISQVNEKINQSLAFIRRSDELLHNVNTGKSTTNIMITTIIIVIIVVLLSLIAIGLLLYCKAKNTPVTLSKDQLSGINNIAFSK
# Assay: cell-based or functional assay
row,Binder,"EC50, PRNT with complement, RSV B1"
1,B1,1.66 µg/mL
2,B2,0.16 µg/mL
3,B3,0.4 µg/mL

# Substrate: F protein of RSV strain 18537 (human respiratory syncytial virus strain 18537 (subtype B)) (UniProt P13843)
# Sequence (P13843 26-574): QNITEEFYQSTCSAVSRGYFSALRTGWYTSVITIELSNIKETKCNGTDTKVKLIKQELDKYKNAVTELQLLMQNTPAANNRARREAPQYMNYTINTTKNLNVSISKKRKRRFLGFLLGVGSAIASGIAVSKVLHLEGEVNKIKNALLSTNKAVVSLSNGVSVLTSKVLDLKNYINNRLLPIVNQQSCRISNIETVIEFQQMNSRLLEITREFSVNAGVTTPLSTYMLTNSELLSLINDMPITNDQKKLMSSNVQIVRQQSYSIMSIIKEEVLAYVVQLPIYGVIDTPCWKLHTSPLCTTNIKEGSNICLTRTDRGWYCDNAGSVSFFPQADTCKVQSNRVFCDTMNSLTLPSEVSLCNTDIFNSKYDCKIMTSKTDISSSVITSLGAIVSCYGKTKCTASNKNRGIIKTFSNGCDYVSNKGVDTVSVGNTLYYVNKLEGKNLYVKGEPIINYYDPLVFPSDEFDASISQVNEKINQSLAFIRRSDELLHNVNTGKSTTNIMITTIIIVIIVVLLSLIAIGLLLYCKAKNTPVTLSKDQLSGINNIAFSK
# Assay: cell-based or functional assay
row,Binder,"EC50, PRNT with complement, RSV 18537"
1,B4,0.21 µg/mL
2,B5,0.1 µg/mL
3,B1,0.72 µg/mL
4,B3,0.95 µg/mL
5,B6,0.07 µg/mL

# Substrate: F protein of RSV strain Long (human respiratory syncytial virus strain Long (subtype A)) (UniProt P12568)
# Sequence (P12568 26-574): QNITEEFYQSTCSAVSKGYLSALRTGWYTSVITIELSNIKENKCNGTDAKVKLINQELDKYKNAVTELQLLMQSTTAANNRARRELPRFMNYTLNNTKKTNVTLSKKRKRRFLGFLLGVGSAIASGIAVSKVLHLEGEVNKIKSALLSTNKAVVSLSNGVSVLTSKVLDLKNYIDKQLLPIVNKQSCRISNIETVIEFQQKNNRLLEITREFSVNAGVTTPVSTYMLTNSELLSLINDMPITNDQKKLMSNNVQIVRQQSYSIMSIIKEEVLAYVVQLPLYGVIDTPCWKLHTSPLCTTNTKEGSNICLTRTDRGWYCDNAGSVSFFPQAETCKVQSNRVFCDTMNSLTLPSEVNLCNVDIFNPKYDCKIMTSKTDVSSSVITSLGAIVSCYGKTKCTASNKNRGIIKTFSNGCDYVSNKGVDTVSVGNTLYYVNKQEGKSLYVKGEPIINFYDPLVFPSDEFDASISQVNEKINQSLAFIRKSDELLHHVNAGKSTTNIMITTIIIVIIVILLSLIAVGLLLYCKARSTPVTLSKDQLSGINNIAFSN
# Assay: cell-based or functional assay
Binder,"EC50, PRNT with complement, RSV Long","EC50, PRNT with complement, RSV Long (new determination)"
B4,1.86 µg/mL,0.15 µg/mL
B5,0.16 µg/mL,–
B1,0.08 µg/mL,–
B2,0.15 µg/mL,–
B3,0.38 µg/mL,–
B6,0.08 µg/mL,–
